Holding throughout (experiment): binding ELISA; OD450 on mutant D2VLP divided by OD450 on original pacD2VLP x100
A general note: In an ELISA, binding on a coated surface is turned into a signal by an enzyme label.

The target of assay [1] is E311R mutant DENV-2 VLP (Dengue virus serotype 2, strain 16681) (UniProt P29990).
The target of assay [2] is W101G mutant DENV-2 VLP (Dengue virus serotype 2, strain 16681) (UniProt P29990).
Assay [3] has as its target K310E mutant DENV-2 VLP (Dengue virus serotype 2, strain 16681) (UniProt P29990).

Experimental findings from patent US20190315839A1 are described below.

For 4G2 (antibody), the Relative binding (%) in assay [1] turned out to be 99.4%; in assay [2], 9%; in assay [3] it was 110%.
